Substitutions are numbered along the chain they refer to. Like-named read-outs stand apart in the source and are kept apart here.
Experiments:
[1] = target: T1, recombinant Fc chimeric conjugate of human EGFR (human, UniProt P00533 25-645); test: ELISA, coated antigen
T1 construct: extracellular domain; Coated on the ELISA plate; also called HER1; Her1
Experimental: (§1) Microtiter plates were coated with a) c-Met, IGF-1R, EGFR, HER2, and/or HER3 protein or b) EGFR, HER2, and/or HER3 (recombinant Fc chimeric conjugates of human c-Met, IGF-1R, EGFR, HER2, HER3 or IL12 Rβ1). After a blocking process, specific antibodies from B-cell supernatants bind to the targets and are then detected by a POD-labeled anti-rabbit IgG antibody. The IL12R binding was used as a counter-screen.
(§2) 12.5 μL 0.5 μg/mL protein in PBS was transferred to a microtiter plate incubated and washed 3× with Wash Buffer. 90 μL Block Buffer was added to each well, incubated and washed. 12.5 μL Standard Antibody (Anti-EGF-Receptor; HER2 Rabbit anti-Human Monoclonal (extracellular domain) (SP3) Antibody; HER3 (N-terminal) antibody; start concentration 2 μg/ml; IL-12Rbeta1 antibody start concentration 500 ng/ml) in 1:2 dilutions or sample diluted in ELISA buffer was added, incubated and washed. 12.5 μl 1:5000 POD-Antibody (Anti-rabbit IgG, peroxidase-linked species-specific Fab2 fragment (from donkey) (ECL); assay dilution: 1:5000) in Elisa Buffer was added, incubated and washed. 15 μl TMB was added and 15 μl HCl was added after sufficient development. Absorbance (Optical Density O.D.) was read at 450 nm/620 nm.

[2] = target: T2, recombinant Fc chimeric conjugate of human HER2 (human, UniProt P04626 23-652); test: ELISA, coated antigen
T2 construct: extracellular domain; Coated on the ELISA plate
Experimental: as §1, §2

[3] = target: T3, recombinant Fc chimeric conjugate of human IGF-1R (human, UniProt P08069 31-935); test: ELISA, coated antigen
T3 construct: extracellular domain; Coated on the ELISA plate
T3 sequence (P08069 31-935, change not shown): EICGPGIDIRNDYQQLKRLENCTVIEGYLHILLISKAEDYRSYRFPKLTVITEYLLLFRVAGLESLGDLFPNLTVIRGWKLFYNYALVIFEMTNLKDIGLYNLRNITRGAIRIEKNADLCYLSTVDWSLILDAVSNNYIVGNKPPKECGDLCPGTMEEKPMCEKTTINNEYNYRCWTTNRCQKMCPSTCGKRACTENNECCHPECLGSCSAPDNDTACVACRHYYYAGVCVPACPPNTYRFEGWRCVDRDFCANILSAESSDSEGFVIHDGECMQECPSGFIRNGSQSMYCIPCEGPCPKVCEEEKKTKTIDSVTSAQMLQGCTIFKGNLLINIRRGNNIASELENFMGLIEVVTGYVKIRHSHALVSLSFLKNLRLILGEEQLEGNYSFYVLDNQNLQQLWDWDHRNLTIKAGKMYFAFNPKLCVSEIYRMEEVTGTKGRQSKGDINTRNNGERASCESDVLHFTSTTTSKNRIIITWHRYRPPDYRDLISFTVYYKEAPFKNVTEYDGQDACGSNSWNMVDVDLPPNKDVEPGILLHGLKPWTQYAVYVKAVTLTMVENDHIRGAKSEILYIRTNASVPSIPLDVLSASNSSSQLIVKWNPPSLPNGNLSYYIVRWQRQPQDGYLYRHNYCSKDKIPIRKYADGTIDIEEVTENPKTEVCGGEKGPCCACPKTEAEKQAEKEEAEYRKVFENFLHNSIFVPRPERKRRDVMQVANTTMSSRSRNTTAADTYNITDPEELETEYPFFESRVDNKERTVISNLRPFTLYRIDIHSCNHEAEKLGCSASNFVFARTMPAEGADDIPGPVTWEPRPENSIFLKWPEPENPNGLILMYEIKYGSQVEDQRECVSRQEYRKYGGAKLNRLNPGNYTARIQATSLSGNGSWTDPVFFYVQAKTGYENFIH
Experimental: as §1, §2

[4] = target: T1, recombinant Fc chimeric conjugate of …; test: ELISA, coated antigen; remark: listed apart in the source
Experimental: as §1, §2

[5] = target: T2, recombinant Fc chimeric conjugate of …; test: ELISA, coated antigen; remark: listed apart in the source
Experimental: as §1, §2

[6] = target: T2, recombinant Fc chimeric conjugate of …; test: ELISA, coated antigen; supernatant IgG 1148.9 ng/ml
Experimental: as §1, §2

[7] = target: T1, recombinant Fc chimeric conjugate of …; test: as above
Experimental: as §1, §2

[8] = target: T4, recombinant Fc chimeric conjugate of human HER3 (human, UniProt P21860 20-643); test: as above
T4 construct: extracellular domain; Coated on the ELISA plate
T4 sequence (P21860 20-643, change not shown): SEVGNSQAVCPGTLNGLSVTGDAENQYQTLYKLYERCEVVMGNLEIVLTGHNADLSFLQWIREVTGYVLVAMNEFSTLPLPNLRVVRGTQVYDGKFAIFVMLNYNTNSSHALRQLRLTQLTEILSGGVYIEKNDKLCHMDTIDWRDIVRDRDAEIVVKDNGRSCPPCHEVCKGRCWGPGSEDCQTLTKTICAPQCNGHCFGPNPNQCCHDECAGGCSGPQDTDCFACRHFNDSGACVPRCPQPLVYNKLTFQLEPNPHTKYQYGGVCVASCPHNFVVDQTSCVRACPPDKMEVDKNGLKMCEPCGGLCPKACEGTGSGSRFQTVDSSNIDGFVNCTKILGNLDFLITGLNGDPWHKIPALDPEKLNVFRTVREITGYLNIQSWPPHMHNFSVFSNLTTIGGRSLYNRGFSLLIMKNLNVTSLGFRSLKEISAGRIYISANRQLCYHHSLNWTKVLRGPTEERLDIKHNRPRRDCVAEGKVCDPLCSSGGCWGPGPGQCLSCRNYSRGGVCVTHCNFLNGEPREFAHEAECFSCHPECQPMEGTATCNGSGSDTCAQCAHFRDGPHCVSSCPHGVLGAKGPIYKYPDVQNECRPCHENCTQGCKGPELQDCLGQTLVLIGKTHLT
Experimental: as §1, §2

[9] = target: T4, recombinant Fc chimeric conjugate of …; test: ELISA, coated antigen
Experimental: as §1, §2

[10] = target: T2, recombinant Fc chimeric conjugate of …; test: ELISA, coated antigen; supernatant IgG 1500.0 ng/ml
Experimental: as §1, §2

[11] = target: T1, recombinant Fc chimeric conjugate of …; test: as above
Experimental: as §1, §2

B1: Antibody A05 (antibody, V domains shown)
VH: QSLEESGGRLVTPGGSLTLTCTVSGIDLSSYAVAWVRQAPGKGLQYIGFFDKSGNVYYASWAKGRFTISRTSSTTVDLKMTSLTTEDTATYFCGRGSGGSDLWGQGTLVTVSS
VL: DVVMTQTPASVEAAVGGTVTIKCQASQSISGYLAWFQQKPGQPPKLLIYGASTLASGVPSRFKGSGSGTEFTLTISDLECADAATYYCQSYYTTSATSYGNAFGGGTEVVVK
notes: rabbit IgG in B-cell supernatant
[1]
  binding result: no binding (tested: OD 0.1 or lower)

B2: Antibody D08 (antibody, V domains shown)
VH: QSLEESGGRLVTPGTPLTLTCTVSGFSLGTYWMSWVRQAPGRGLDWIGFIGSSGNGNYASWAKGRFTISRASSTTVDLKMTSLTTEDTATYFCARVKYFYYFDLWGQGTLVTVSS
VL: AQVLTQTTSPVSAAVGGTVTINCQASESVYGKKYLSWYQQKPGQPPKQLIYEASKLASGVPSRFEGSGSGTQFTLTISGVQCDDAATYYCQGEFSCSSADCTAFGGGTEVVVK
notes: as for B1
[2]
  binding result: no binding (tested: OD 0.1 or lower)
[3]
  binding result: no binding (tested: OD 0.1 or lower)

B3: Antibody D02 (antibody, V domains shown)
VH: QSLEESGGRLVTPGTPLTLTCTASRFSLSSYGVNWVRQAPGKGLQWIGYSHTDGSAYYTNWAKGRFTISRTSTTVDLKITSPTTADTATYFCWRGGLWGQGTLVTVSS
VL: AQVLTQTPSSVSAAVGGTVTINCQASQSVYKNNYLSWYQQKPGQPPKRLIYTASTLASGVPSRFKGSGSGTEFTLTISDVQCDDAATYYCVGGYDCSSADCNAFGGGTEVVVK
notes: as for B1
[3]
  binding result: no binding (tested: OD 0.1 or lower)

B4: Antibody 47 (antibody, V domains shown)
VH: QSVEESGGRLVTPGTPLTLTCTVSGFSLSSYAMNWVRQAPGKGLEWIGIIDSSGITYYATWAKGRFTISKTSTTVDLKMTSLTTEDTATYFCARGVTLWGQGTLVTVSS
VL: AQVLTQTASPVSAAVGSTVTINCQASQSVYNNNRLSWFQQKPGQPPKLLISGASTLASGVSSRFSGSGSGTQFTLTISDVQCDDAATYYCLGSYDCSSADCGAFGGGTEVVVK
notes: as for B1
[4]
  binding result: no binding (tested: OD 0.1 or lower)

B5: Antibody 87 (antibody, V domains shown)
VH: QSVEESGGRLVTPGTPLTVTCTVSGFSLSSYVMSWVRQAPGKGLEWIGIIASSGHTYYATWAKGRFTISKTSTTVDLKITSPTTEDTATYFCARYGSDSGWGYYFTLWGPGTLVTVSS
VL: AQVLTQTPSSVSEPVGGTVTINCQASENIYSYLSWYQQKRGQPPKLLIYGASTLASGVPSRFKGSGSGTEYTLTISDLECDDAATYYCQSGYYTNSGDLAFGGGTEVVVK
notes: as for B1
[4]
  binding result: no binding (tested: OD 0.1 or lower)

B6: Antibody B02 (antibody, V domains shown)
VH: QSVEESGGRLVTPGTPLTLTCTVSGFSLSSYDMIWVRQAPGKGLEYIGIINTGGSAHYARWANGRFTISKTSTKVDLKITSPTIEDTATYFCARRDFGVSSKLWGQGTLVTVSS
VL: DIVMTQTPASVSAAVGGTVTINCQASEDIGNWLAWYQQKPGQRPKLLIYAASDLASGVPSRFKGSGSGTDFTLTISGLECADAATYYCQGGFFGSGFVYAFGGGTEVVVK
notes: as for B1
[1]
  binding result: no binding (tested: OD 0.1 or lower)

B7: Antibody 11 (antibody, V domains shown)
VH: QSVEESGGRLVTPGTPLTLTCTVSGFSLRSYAMSWVRQAPGKGLEWVGIISTSGDTYYASWAKGRFTISKTSTTVDLKITSPTTEDTATYFCARYSYDDYGDYVRVGMDLWGPGTLVTVSS
VL: AAVLTQTPSPVSAAVGGTVSISCQSSKSVYYNNWLSWFQQKPGQRPKLLIYGASTLASGVPSRFKGSGSETQFTLTISDVQCDDAATYYCAGGYTSSSDTVSFGGGTEVVVK
notes: as for B1
[5]
  binding result: no binding (tested: OD 0.1 or lower)

B8: Antibody 22 (antibody, V domains shown)
VH: QSVEESGGRLVTPGTPLTLTCTVSGFSLSNYGMSWVRQAPGKGLEWIGIITSRSTYYASWAKGRFTISKTSSTTVDLKMTSLTTEDTATYFCGVNNLWGQGTLVTVSS
VL: DPVLTQTPSSVSAAVGGTVTISCQSSQTINNNDLSWFQQKPGQPPKRLIYEASTLTSGVPSRFKGSGSGTQFTLTISDVQCDDAATYYCLGGYYSYGWYFGFGGGTEVVVK
notes: as for B1
[5]
  binding result: no binding (tested: OD 0.1 or lower)

B9: Antibody 23 (antibody, V domains shown)
VH: QSLEESGGRLVKPGTPLTLTCTASGFSLSSYYMIWVRQAPGKGLEYIGIISSSGSTYYASWAKGRFTISKTSSTTVDLKMTSLTTEDTATYFCGVNNLWGQGTLVTVSS
VL: B8 VL with T28S, Q39K
notes: as for B1
[5]
  binding result: no binding (tested: OD 0.1 or lower)

B10: Antibody 69 (antibody, V domains shown)
VH: QSVEESGGRLVTPGTLLTLTCTVSGFSLTTYAVSWVRQAPGKGLEYMGYISATGSTYYASWAKGRFTISRTSTTVDLKITSPTIEDTATYFCARIDAATSYSAFDPWGPGTLVTVSS
VL: AQVLTQTPSSVSAAVGGTVTINCQSSESVYKNNYLAWYQQKPGQPPRLLIYLASTLASGVPSRFSGSGSGTQFTLTISGVQCDDAATYYCEATYVGVDWYWAFGGGTEVVVK
notes: as for B1
[5]
  binding result: no binding (tested: OD 0.1 or lower)

B11: Antibody 75 (antibody, V domains shown)
VH: QSVEESGGRLVTPGTPLTLTCTVSGFSLSRNAMSWVRQAPGKGLEWIGIINIYGTTWYASWAKGRFTISKTSSTTVTLKITSPTTEDTATYFCARDYGGDSATRLNLWGQGTLVTVSS
VL: DVVMTQTPASVEAAVGGTVTIKCQASQSIGGYLSWYQQKPGQPPKLLIYDASNLEIGVPSRFKGSGSGTEYTLTISDLECADAVTYYCQCTYGYGISSSYGNAFGGGTEVVVK
notes: as for B1
[5]
  binding result: no binding (tested: OD 0.1 or lower)

B12: Antibody 71 (antibody, V domains shown)
VH: B11 VH with Y58H, S60G
VL: B11 VL
notes: as for B1
[5]
  binding result: no binding (tested: OD 0.1 or lower)

B13: Antibody 64 (antibody, V domains shown)
VH: QEQLKESGGGLVTPGTPLTLTCTASGFTISSYDMGWVRQAPGKGLEWIGYIWSGGSTYYANWAKGRFTISKTSTTVDLKMTSLTTEDTATYFCARVEFYSYVYVLWGPGTLVTVSS
VL: AFELTQTPSSVEAAVGGTVTIKCQASQSISGCLAWYQQKPGQPPKLLIYLASTLASGVSSRFRGSGSGTEYTLTISGVECDDAATYYCQQHYSSNNVDNAFGGGTEVVVK
notes: as for B1
[5]
  binding result: no binding (tested: OD 0.1 or lower)

B14: Antibody G04 (antibody, V domains shown)
VH: QSLEESGGDLVKPGASLTLTCKASGFTISSSYYMCWVRQAPGKGLEWVACSYDGDGSTYYANWAKGRFTTSKTSSTTVTLQMTSLTAADTATYFCARGSYVSRSYYDKWDLWGQGTLVTVSS
VL: EVVMTQTPASVSEPVGGTVTIKCQASQYISSYLSWYQQKPGQPPKLLIYAASNLASGVPSRFKGSGSGTEFTLTISGVQCDDAATYYCQNNYYISGYGTAFGGGTEVVVK
notes: as for B1
[1]
  binding result: no binding (tested: OD 0.1 or lower)

B15: Antibody 25 (antibody, V domains shown)
VH: QSLEESGGDLVKPGASLTLICTASGFDLNTNYWICWVRQAPGKGLEWIACIDSGYGDIYYATWAKGRFTISKASSTTVTLQMTSLTAADTATYFCAREIIFHFNLWGPGTLVTVSS
VL: DVVMTQTPASVSEPVGGTVTIKCQASQSIRSYLAWYQQKPGQPPKVLIYKASTLASGVSSRFKGSGSGTQFTLTISDLECADAATYYCQGGVEFNNYLYNSFGGGTEVVVK
notes: as for B1
[6]
  Optical density (OD): 2.4 OD
[7]
  Optical density (OD): 3.3 OD
[8]
  Optical density (OD): 2.6 OD

B16: Antibody 77 (antibody, V domains shown)
VH: QSVEESGGRLVTPGTPLTLTCTISGFSLNNYWMSWVRQAPGKGLEWIGIISSSDTTWYASWAKGRFTISRTSTTVDLKMTSLTTEDTATYFCARDRGDVGYSDLDLWGPGTLVTVSS
VL: AYDMTQTPASVEVAVGGTVTIKCQASQSISSYLSWYQQKPGQPPKLLIYKASTLASGVSSRFSGSGSGTEFTLTISGVQCDDAATYYCQQGYSESNLDNAFGGGTEVVVK
notes: as for B1
[9]
  binding result: no binding (tested: OD 0.1 or lower)
[10]
  Optical density (OD): 2.5 OD
[11]
  Optical density (OD): 1.5 OD

B17: Antibody 62 (antibody, V domains shown)
VH: QSVEESGGRLVTPGTPLTLTCTVSGFSLSTNDIGWVRQAPGKGLEWIGYIWSGVKTYYVGWAKGRFTISKTSSTTVDLKMTSLTTEDTATYFCARVNSFSYVYSLWGPGTLVTVSS
VL: AYDMTQTPGSVEVAVGGTVTIKCQASEDIHSSLAWYQQKPGQPPKLLIYLASTLESGVPSRFKGSGSGTEYTLTISGVECADAATYYCQQHHSTSGVDNAFGGGTEVVVK
notes: as for B1
[5]
  binding result: no binding (tested: OD 0.1 or lower)

B18: Antibody 68 (antibody, V domains shown)
VH: QSVEESGGRLVTPGTPLTLTCTVSGFSLSTYSMSWVRQAPGKGLEWIGTIAISGTTYYASWAKGRFTISKSSTTVDLKISSPTTEDTATYFCARYVSDLIGTNLWGPGTLVTVSS
VL: DVVMTQTPASVSEPVGGTVTIKCQASQSIGSNLAWHQQKPGQPPKLLIYAASNLASGVSSRFKGSRSGTEYTLTISAVQCDDAATYYCQYTYYGSSVVIGTFGGGTEVVVK
notes: as for B1
[9]
  binding result: no binding (tested: OD 0.1 or lower)
[10]
  Optical density (OD): 2.7 OD
